Test results from patent US20160289280A1, “Fusion protein of recombinant ganoderma immunoregulatory protein and human serum albumin, preparation method thereof, and application thereof” (priority 2013, published 2016).
Marks after values point to notes of the source that are not given here.

B1: rLZ-8-HSA: fusion protein of ganoderma immunoregulatory protein (LZ-8) and human serum albumin, linker GGGGSS, SEQ ID NO. 1 (protein)
chain: SDTALIFRLAWDVKKLSFDYTPNWGRGNPNNFIDTVTFPKVLTDKAYTYRVAVSGRNLGVKPSYAVESDGSGKVNFLEYNSGYGIADTNTIGVFVVDPDTNNDFIIAGWNGGGGSSMKWVTFISLLFLFSSAYSRGVFRRDAHKSEVAHRFKDLGEENFKALVLIAFAGYLGGCPFEDHVKLVNEVTEFAKTCVADESAENCDKSLHTLFGDKLCTVATLRETYGEMADCCAKGEPERNECFLGHKDDNPNLPRLVRPEVDVMCTAFHDNEETFLKKYLYEIARRHPYFYAPELLFFAKRYKAAFTECCGAADKAACLLPKLDELRDEGKASSAKGRLKCASLGKFGERAFKAWAVARLSGRFPKAEFAEVSKLVTDLTKVHTECCHGDLLECADDRADLAKYICENGDSISSKLKECCEKPLLEKSHCIAEVENDEMPADLPSLAADFVESKDVCKNYAEAKDVFLGMFLYEYARRHPDYSVVLLLRLAKTYETTLEKCCAAADPHECYAKVFDEFKPLVEEPGNLIKGNCELFEGLGEYKFGNALLVRYTKKVPGVSTPTLVEVSRNLGKVGSKCCKHPEAKRMPCAEDYLSVVLNGLCVLHEKTPVSDRVTKCCTESLVNRRPCFSALEVDETYVPKEFNAETFTFHADICTLSEKERGIKKGTALVELVKHKPKATKEGLKAVMDDFAAFVEKCCKADDKETCFAEEGKKLVAASGAALGL
modifications: rLZ-8-HSA sequence
B2: rLZ-8: recombinant ganoderma immunoregulatory protein which is not fused, comparator (protein, UniProt P14945 2-111, looked up)
Immunomodulatory protein Ling …: SDTALIFRLAWDVKKLSFDYTPNWGRGNPNNFIDTVTFPKVLTDKAYTYRVAVSGRNLGVKPSYAVESDGSQKVNFLEYNSGYGIADTNTIQVFVVDPDTNNDFIIAQWN

Experiments:
melanoma = assay: in vitro inhibition effect on melanoma, WST-1 method; format: cell-based; details: 24 h, x ± s, n = 9
Description: In vitro experiment: testing the inhibition effect of the fusion protein rLZ-8-HSA on the melanoma through a WST-1 method, preparing tissue suspension of the melanoma; adding 100 μl the tissue suspension into 900 μl 2% glacial acetic acid and counting with a microscope; adjusting a tissue concentration to 2×10^5/ml with DMEM comprising 2% calf serum; respectively preparing the fusion protein rLZ-8-HSA and the rLZ-8 with same molar concentration gradient, wherein there are 3 gradient concentrations, each concentration occupies 9 wells with 100 μl per well; adding tissue suspension with a concentration of 2×10^5/ml with 100 μl per well; shaking for evenly mixing, and then putting into a 37° C., 5% CO2 incubation device to incubate for 24 h; after incubation, adding WST-1 with 20 μl per well; putting into the 37° C., 5% CO2 incubation device to incubate for 3 h, then testing OD450 (with a BIO-RAD); wherein results are listed in table 3.

platelets = assay: treatment of mouse thrombocytopenia caused by cyclophosphamide, platelet count; format: in vivo; details: for platelets after: after cyclophosphamide, before treatment; for platelets before: baseline before cyclophosphamide
Description: Experimental medicine: preparing a 19.25 μg·kg^−1 and a 9.625 μg·kg^−1 dosage groups of the recombinant ganoderma immunoregulatory protein (rLZ-8) with sterile injection water, and 0.2 ml per mouse; and preparing a 19.25 μg·kg^−1 and a 9.625 μg·kg^−1 dosage groups (judging from the LZ-8) of the fusion protein rLZ-8-HSA of the recombinant ganoderma immunoregulatory protein.
Positive control medicine: thrombopoietin (THPO) from Shenyang 3SBio Inc., with a dosage of 770 μg·kg^−1/d and 0.2 ml per mouse.
Chemotherapy medicine: cyclophosphamide (Cy) from Jiangsu Hengrui Medicine Co., Ltd, whose batch number is 12112121, 200 mg/bottle; preparing into 100 mg·kg^−1, 0.2 ml per mouse with sterile injection water.
Platelet dilution: urea: 1.3 g; sodium citrate: 0.5 g; formaldehyde: 0.1 ml; adding distilled water to 100 ml for mixing, then filtering for further utilization.
Experimental method: dividing experimental animals into 5 groups, wherein each group comprises 10 mice with 5 males and 5 females; except for a normal control group (injected with normal saline having an equal volume), abdominally injecting the cyclophosphamide to the mice with a dosage of 100 mg·kg^−1, 0.2 ml per mouse per day, and lasting for three days; when a platelet quantity decreased to below 300×10^9/L, subcutaneously injecting the rLZ-8, the fusion protein rLZ-8-HAS (19.25 μg·kg^−1, 9.625 μg·kg^−1, 0.2 ml·per mouse per day) and the positive medicine (THPO 770 μg·kg^−1, 0.2 ml·per mouse per day) according to the above groups with corresponding dosages, and injecting the normal saline having the equal volume to the normal control group and a CP group; respectively sampling mouse tail vein blood 3 d, 7 d and 14 d after treatment, counting platelets with high power lens, wherein results thereof are listed in table 7.

[1] = 9.625 μg·kg^−1 (LZ-8) subcutaneously per day
[2] = 19.25 μg·kg^−1 (LZ-8) subcutaneously per day

Molecule | OD450, inhibition effect on melanoma (melanoma; protein 5.0 × 10^−9 mol/L) | OD450, inhibition effect on melanoma (melanoma; protein 10.0 × 10^−9 mol/L) | OD450, inhibition effect on melanoma (melanoma; protein 15.0 × 10^−9 mol/L) | platelets 3rd day (platelets; [1]) | platelets 7th day (platelets; [1]) | platelets 14th day (platelets; [1]) | platelets after (platelets; 9.625 μg·kg^−1 group) | platelets before (platelets; 9.625 μg·kg^−1 group) | platelets 3rd day (platelets; [2]) | platelets 7th day (platelets; [2]) | platelets 14th day (platelets; [2]) | platelets after (platelets; 19.25 μg·kg^−1 group) | platelets before (platelets; 19.25 μg·kg^−1 group) | platelet recovery compared with the CP group (platelets; rLZ-8-HSA groups, p<0.05)
B1 | 0.411 ± 0.31 | 0.212 ± 0.29 | 0.118 ± 0.11 | 624 ± 0.43* *10^9/L | 697 ± 0.43* *10^9/L | 929 ± 0.61** *10^9/L | 261 ± 0.52 *10^9/L | 843 ± 0.65 *10^9/L | 760 ± 0.38* *10^9/L | 978 ± 0.67* *10^9/L | 1035 ± 0.78** *10^9/L | 246 ± 0.36 *10^9/L | 852 ± 0.82 *10^9/L | returned to normal at the third day
B2 | 0.427 ± 0.44 | 0.372 ± 0.21 | 0.302 ± 0.24 | 483 ± 0.45 *10^9/L | 585 ± 0.78 *10^9/L | 898 ± 0.61* *10^9/L | 201 ± 0.41 *10^9/L | 839 ± 0.40 *10^9/L | 501 ± 0.48 *10^9/L | 680 ± 0.28 *10^9/L | 1021 ± 0.31** *10^9/L | 226 ± 0.78 *10^9/L | 946 ± 0.45 *10^9/L | 
